{"source": "the RNAGym collection of RNA variant scans (doi:10.7554/elife.90254)", "parents": {"B1": {"name": "LINE1-full (parent)", "chain": "UACGUAGGUGGUUUUCCCCUGAUAGUGCUAAGGGGGCCUGGAAGUUUGGACUGGGCAGAGCUCAACACAGCGUGGCAAAGUGGCUGUGGCUAGACUGCCUCUCUGGAUUCCUCGUCACUCAGCAGGGCAUCUCUGAGAGAAAUGCC"}}}
{"variants_of": "B1", "assay": "self-cleavage, relative activity (ratio to wild type); higher = more cleavage; in vitro, sequencing; the parent is a self-cleaving ribozyme"}
{"variant": "A22G C90U", "self-cleavage": 0.04}
{"variant": "C19U U102C", "self-cleavage": 0.73}
{"variant": "U20C C101U", "self-cleavage": 1.11}
{"variant": "A22G C63A", "self-cleavage": 0.05}
{"variant": "A22G A117G", "self-cleavage": 0.97}
{"variant": "A22G A117U", "self-cleavage": 1.29}
{"variant": "G21A C120A", "self-cleavage": 1.11}
{"variant": "C19U U87A", "self-cleavage": 0.09}
{"variant": "C19U U87C", "self-cleavage": 0.06}
{"variant": "G21A G137A", "self-cleavage": 1.21}
{"variant": "A22G A64U", "self-cleavage": 0.41}
{"variant": "A22G A64G", "self-cleavage": 0.34}
{"variant": "U20C A78G", "self-cleavage": 1.52}
{"variant": "U20C A136U", "self-cleavage": 1.51}
{"variant": "C19U G36C", "self-cleavage": 0.82}
{"variant": "C19U G93A", "self-cleavage": 0.07}
{"variant": "G21U C56G", "self-cleavage": 0.02}
{"variant": "U20C A140C", "self-cleavage": 2.05}
{"variant": "U20C A140U", "self-cleavage": 0.95}
{"variant": "U20A U112A", "self-cleavage": 1.82}
{"variant": "C19U U39A", "self-cleavage": 1.07}
{"variant": "C19U U39C", "self-cleavage": 0.65}
{"variant": "C19U U108C", "self-cleavage": 1.26}
{"variant": "A22C A50U", "self-cleavage": 1.02}
{"variant": "U20A A30G", "self-cleavage": 0.9}
{"variant": "U20A A50G", "self-cleavage": 1.2}
{"variant": "U20C C116A", "self-cleavage": 1.5}
{"variant": "G21A U52A", "self-cleavage": 1.76}
{"variant": "U20A G135U", "self-cleavage": 0.43}
{"variant": "G21A A57U", "self-cleavage": 0.02}
{"variant": "G21A A57C", "self-cleavage": 0.09}
{"variant": "U20C C95U", "self-cleavage": 0.27}
{"variant": "U20C C95A", "self-cleavage": 0.09}
{"variant": "U20A C68U", "self-cleavage": 0.35}
{"variant": "A22G C51A", "self-cleavage": 0.4}
{"variant": "U20G U96G", "self-cleavage": 0}
{"variant": "U20A C90U", "self-cleavage": 0.02}
{"variant": "U20A U100A", "self-cleavage": 0.78}
{"variant": "U20A U100C", "self-cleavage": 1.49}
{"variant": "U20C A94U", "self-cleavage": 0.28}
{"variant": "U20C A94G", "self-cleavage": 0.39}
{"variant": "U20C A92G", "self-cleavage": 0.08}
{"variant": "U20C A92U", "self-cleavage": 0.72}
{"variant": "U20A C38U", "self-cleavage": 0.87}
{"variant": "A22G C68U", "self-cleavage": 0.98}
{"variant": "C19U G48A", "self-cleavage": 0.72}
{"variant": "U20C A50U", "self-cleavage": 1.32}
{"variant": "A22G A57U", "self-cleavage": 0.2}
{"variant": "A22G A57G", "self-cleavage": 0.67}
{"variant": "U20C G33C", "self-cleavage": 0.74}
{"variant": "U20C G33A", "self-cleavage": 0.99}
{"variant": "U20A A140G", "self-cleavage": 1.16}
{"variant": "U20A A140U", "self-cleavage": 1.7}
{"variant": "U20A G137U", "self-cleavage": 0.85}
{"variant": "G21U A94U", "self-cleavage": 0.39}
{"variant": "A22G A43U", "self-cleavage": 0.88}
{"variant": "G21A U102C", "self-cleavage": 1.79}
{"variant": "U20A U23C", "self-cleavage": 0.83}
{"variant": "G21A C38A", "self-cleavage": 1.07}
{"variant": "U20G A78G", "self-cleavage": 1.1}
{"variant": "U20C G83A", "self-cleavage": 1}
{"variant": "A22C A129G", "self-cleavage": 1.39}
{"variant": "U20C U62A", "self-cleavage": 0.11}
{"variant": "U20C U62G", "self-cleavage": 0.03}
{"variant": "U20C U132A", "self-cleavage": 1.63}
{"variant": "U20C U132C", "self-cleavage": 1.23}
{"variant": "U20A U26A", "self-cleavage": 1.23}
{"variant": "U20A A94G", "self-cleavage": 0.18}
{"variant": "U20A A136G", "self-cleavage": 0.93}
{"variant": "U20A A64U", "self-cleavage": 0.36}
{"variant": "A22G A92U", "self-cleavage": 0.79}
{"variant": "A22G A92G", "self-cleavage": 0.2}
{"variant": "U20A A138G", "self-cleavage": 1.27}
{"variant": "A22G A142U", "self-cleavage": 0.92}
{"variant": "C19U U115C", "self-cleavage": 1.79}
{"variant": "G21A A124G", "self-cleavage": 0.9}
{"variant": "U20G A64U", "self-cleavage": 0.71}
{"variant": "U20G U29A", "self-cleavage": 0.8}
{"variant": "U20G U29C", "self-cleavage": 1.36}
{"variant": "U20C A121U", "self-cleavage": 1.44}
{"variant": "G21U U73C", "self-cleavage": 2.04}
{"variant": "U20A G58C", "self-cleavage": 0.08}
{"variant": "U20A G114A", "self-cleavage": 1.4}
{"variant": "G21U C131U", "self-cleavage": 1.41}
{"variant": "U20C G126A", "self-cleavage": 1.8}
{"variant": "U20G A136G", "self-cleavage": 1.03}
{"variant": "U20A U132C", "self-cleavage": 1.49}
{"variant": "C19U G58U", "self-cleavage": 0.09}
{"variant": "U20C G49A", "self-cleavage": 1.54}
{"variant": "U20G A129C", "self-cleavage": 1.95}
{"variant": "U20C A124G", "self-cleavage": 1.06}
{"variant": "U20C A124U", "self-cleavage": 1.17}
{"variant": "U20G U132C", "self-cleavage": 1.4}
{"variant": "U20C U119C", "self-cleavage": 1.35}
{"variant": "U20C G32U", "self-cleavage": 0.94}
{"variant": "U20G U85C", "self-cleavage": 0.18}
{"variant": "U20G U85G", "self-cleavage": 0.1}
{"variant": "G21A A67C", "self-cleavage": 0.02}
{"variant": "C19U G40A", "self-cleavage": 1}
{"variant": "A22C U81C", "self-cleavage": 1.04}
{"variant": "G21A C145U", "self-cleavage": 0.32}
{"variant": "U20A A42G", "self-cleavage": 1.06}
{"variant": "U20C G44U", "self-cleavage": 1.06}
{"variant": "U20C G25A", "self-cleavage": 0.84}
{"variant": "G21A U119C", "self-cleavage": 1.25}
{"variant": "A22G A59G", "self-cleavage": 0.16}
{"variant": "U20C G75A", "self-cleavage": 1.16}
{"variant": "C19U U26A", "self-cleavage": 0.95}
{"variant": "C19U U26C", "self-cleavage": 1.32}
{"variant": "A22G A129C", "self-cleavage": 0.27}
{"variant": "U20G U109C", "self-cleavage": 0.93}
{"variant": "U20G U109G", "self-cleavage": 0.43}
{"variant": "U20G U47A", "self-cleavage": 0.51}
{"variant": "U20G U47C", "self-cleavage": 0}
{"variant": "U20A U96A", "self-cleavage": 0.05}
{"variant": "U20G C61U", "self-cleavage": 0.09}
{"variant": "U20A A107G", "self-cleavage": 1.37}
{"variant": "A22G A65G", "self-cleavage": 0.08}
{"variant": "U20G A42G", "self-cleavage": 0.67}
{"variant": "A22C U46A", "self-cleavage": 2.21}
{"variant": "C19U U52A", "self-cleavage": 1.28}
{"variant": "C19U U52G", "self-cleavage": 0.5}
{"variant": "U20A C51U", "self-cleavage": 0.77}
{"variant": "U20A C51A", "self-cleavage": 0.82}
{"variant": "U20G U73C", "self-cleavage": 1.39}
{"variant": "U20G U73G", "self-cleavage": 0.49}
{"variant": "U20A G53A", "self-cleavage": 1.01}
{"variant": "A22C A124G", "self-cleavage": 1.92}
{"variant": "A22C A30G", "self-cleavage": 1.18}
{"variant": "U20C C118U", "self-cleavage": 1.2}
{"variant": "U20C C118G", "self-cleavage": 1.45}
{"variant": "U20C U104A", "self-cleavage": 1.17}
{"variant": "U20C G114A", "self-cleavage": 1.57}
{"variant": "C19U U112A", "self-cleavage": 1.06}
{"variant": "C19U U112C", "self-cleavage": 1.13}
{"variant": "U20C U115C", "self-cleavage": 1.57}
{"variant": "G21U U134A", "self-cleavage": 1.27}
{"variant": "A22G C37G", "self-cleavage": 0.79}
{"variant": "U20A A141G", "self-cleavage": 1.43}
{"variant": "U20A U85G", "self-cleavage": 0.1}
{"variant": "U20A U85A", "self-cleavage": 0.11}
{"variant": "G21U A42U", "self-cleavage": 1.03}
{"variant": "G21U A42G", "self-cleavage": 0.8}
{"variant": "G21C U47A", "self-cleavage": 0.91}
{"variant": "A22G A79U", "self-cleavage": 1.51}
{"variant": "U20A G33U", "self-cleavage": 0.66}
{"variant": "C19U U134C", "self-cleavage": 1.09}
{"variant": "C19U U134A", "self-cleavage": 0.81}
{"variant": "U20A G49A", "self-cleavage": 1.37}
{"variant": "U20G U134C", "self-cleavage": 0.64}
{"variant": "U20C C76U", "self-cleavage": 2.18}
{"variant": "G21A G114A", "self-cleavage": 2.07}
{"variant": "U20C G72U", "self-cleavage": 0.9}
{"variant": "A22G A136U", "self-cleavage": 0.87}
{"variant": "A22G A136C", "self-cleavage": 1.49}
{"variant": "A22G A136G", "self-cleavage": 1.17}
{"variant": "A22G A50G", "self-cleavage": 0.97}
{"variant": "U20A C66U", "self-cleavage": 0.02}
{"variant": "U20C U143C", "self-cleavage": 1.29}
{"variant": "U20C G41A", "self-cleavage": 1.27}
{"variant": "G21A A59U", "self-cleavage": 0.57}
{"variant": "U20A G32C", "self-cleavage": 1.33}
{"variant": "U20G A141G", "self-cleavage": 0.87}
{"variant": "U20A U109A", "self-cleavage": 0.88}
{"variant": "U20A U109C", "self-cleavage": 1.25}
{"variant": "G21A U100C", "self-cleavage": 1.72}
{"variant": "U20C U45C", "self-cleavage": 1.19}
